The source of these data is publication PMC4267640.

The data set concerns the target DNA polymerase alpha catalytic core (p180 core) (human, UniProt P09884 335-1257). Nature of the data set: X-ray crystallography.

Chain of DNA polymerase alpha catalytic core (p180 core) (P09884 335-1257): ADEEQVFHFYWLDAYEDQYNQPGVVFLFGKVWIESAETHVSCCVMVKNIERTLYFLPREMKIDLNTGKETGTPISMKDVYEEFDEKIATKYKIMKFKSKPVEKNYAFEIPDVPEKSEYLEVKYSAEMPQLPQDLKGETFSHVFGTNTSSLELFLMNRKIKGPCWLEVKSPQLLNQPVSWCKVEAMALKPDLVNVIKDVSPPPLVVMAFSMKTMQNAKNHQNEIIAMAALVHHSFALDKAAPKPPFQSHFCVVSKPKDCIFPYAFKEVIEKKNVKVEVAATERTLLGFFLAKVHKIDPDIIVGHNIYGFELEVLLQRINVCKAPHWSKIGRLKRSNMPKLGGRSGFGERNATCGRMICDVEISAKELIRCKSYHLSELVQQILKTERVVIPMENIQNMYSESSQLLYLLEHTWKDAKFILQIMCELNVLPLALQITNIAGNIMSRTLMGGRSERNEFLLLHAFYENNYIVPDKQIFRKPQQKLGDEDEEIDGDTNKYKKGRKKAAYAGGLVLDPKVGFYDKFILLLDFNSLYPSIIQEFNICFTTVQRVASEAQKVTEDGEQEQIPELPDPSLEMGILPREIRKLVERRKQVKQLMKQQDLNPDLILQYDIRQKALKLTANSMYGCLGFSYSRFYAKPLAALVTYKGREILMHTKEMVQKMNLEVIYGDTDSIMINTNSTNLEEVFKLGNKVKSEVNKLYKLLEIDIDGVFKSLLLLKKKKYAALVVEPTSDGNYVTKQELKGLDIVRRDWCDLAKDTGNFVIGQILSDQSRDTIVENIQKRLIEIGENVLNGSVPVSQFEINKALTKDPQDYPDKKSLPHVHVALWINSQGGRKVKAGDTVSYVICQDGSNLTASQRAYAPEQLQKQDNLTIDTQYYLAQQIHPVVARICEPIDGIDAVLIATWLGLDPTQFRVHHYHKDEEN

B1: RNA-primed DNA template (DNA:RNA)
DNA: ATTACTATAGGCGCTCCAGGC
RNA: GCCUGGAGCGC
modifications: primer strand is RNA with a 3'-terminal dideoxycytidine (ddC)
For B1, the binding result was “binds”.
